The values below come from PMC5709738 (The EMBO Journal, 2017).

In assay [1] the target is COMA (K. lactis, full length: Ame1, Ctf19, Mcm21, Okp1) (Kluyveromyces lactis) (UniProt Q6CUE5). The assay is described as follows: native MS; nanoflow electrospray of intact assemblies in 200 mM ammonium acetate pH 6.7-7.3 or 7.4; higher micromolar concentrations (COMA ~3 or ~6 uM; COMA-Nkp1-Nkp2 ~3 uM).
Assay [2] has the same target. Put plainly: SEC-MALS; COMA injected at ~43 uM (COMA dimer) on Superdex 200 10/300; max. dimeric COMA concentration in the principal peak 2.4 uM.
The target in assay [3] is COMA-MIND (K. lactis COMA bound with MIND-C1) (Kluyveromyces lactis) (UniProt Q6CUE5). Put plainly: native MS; nanoflow electrospray of intact assemblies in 200 mM ammonium acetate pH 6.7-7.3 or 7.4; higher micromolar concentrations (COMA ~3 or ~6 uM; COMA-Nkp1-Nkp2 ~3 uM).
Assay [4] has as its system S. cerevisiae clones. The assay is described as follows: dilution-series growth assay on solid YPD agar with benomyl. The assay is classed as cell-based. The following applies: 20 μg/ml benomyl. The source says:
For vegetative growth assays on solid agar, we serially diluted our mitotically cycling S. cerevisiae clone suspensions to an absorbance at 600 nm (A600) of 0.4, in 96‐well plates (Nunc; Thermo Fisher Scientific). From this suspension, we sequentially fourfold diluted suspensions with minimal synthetic complete medium row‐wise (Fig 8A and C; Appendix Fig S9A, B and E). We spotted S. cerevisiae suspensions with a sterilized 48‐head metal pinner (V & P Scientific, Inc.). We prepared our solid YPD agar that contained benomyl with a final concentration of 20 μg/ml benomyl (Sigma‐Aldrich). We did our growth experiments with S. cerevisiae clones that encode Mad1 fused to an auxin‐inducible degron (Appendix Fig S9E) on solid yeast‐extract peptone (YEP) agar with 2% (w/v) raffinose and 2% (w/v) galactose, and 1 mM of the synthetic auxin analogue 1‐napthylic acetic acid (NAA; Carl Roth), similarly as described (Nishimura et al, 2009). To prepare S. cerevisiae extracts for our Western blot that we show an image in Appendix Fig S9F, we grew cultures in YEP with 2% (w/v) raffinose and 2% (w/v) galactose to an A600 of 0.3. After the addition of NAA to a concentration of 1 mM, we collected cells from cultures after specific time points (Appendix Fig S9F) by centrifugation.

In assay [5] the target is T1, full-length Ctf19-Mcm21 (K. lactis) (Kluyveromyces lactis, UniProt Q6CRN7 1-270; Q6CVQ9 1-293).
T1 chain 1: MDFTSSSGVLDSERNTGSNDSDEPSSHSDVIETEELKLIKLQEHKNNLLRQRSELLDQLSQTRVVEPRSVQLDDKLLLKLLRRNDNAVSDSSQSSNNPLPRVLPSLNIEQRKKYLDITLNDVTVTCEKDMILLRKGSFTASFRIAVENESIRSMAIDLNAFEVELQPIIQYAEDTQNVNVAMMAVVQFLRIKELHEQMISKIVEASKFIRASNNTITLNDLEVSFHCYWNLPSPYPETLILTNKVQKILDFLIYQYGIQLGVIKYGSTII
T1 chain 2: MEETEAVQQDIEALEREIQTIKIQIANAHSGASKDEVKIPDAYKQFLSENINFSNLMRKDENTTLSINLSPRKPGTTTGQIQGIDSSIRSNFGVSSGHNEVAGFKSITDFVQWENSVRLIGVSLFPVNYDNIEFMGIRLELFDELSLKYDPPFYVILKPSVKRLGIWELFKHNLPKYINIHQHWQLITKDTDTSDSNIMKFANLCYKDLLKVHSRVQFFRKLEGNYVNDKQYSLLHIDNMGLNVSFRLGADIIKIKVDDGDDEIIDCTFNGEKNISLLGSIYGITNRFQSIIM
The assay is described as follows: MST.

As for “COMA (K. lactis, full length: Ame1, Ctf19, Mcm21, Okp1) (from UniProt Q6CUE5 1-292; Q6CRN7 1-270; Q6CVQ9 1-293; Q6CJY0 1-383) (complex)”, the stoichiometry N in assay [1] and in assay [2] was 2 each time.

In assay [3], “COMA-MIND (K. lactis COMA bound with MIND-C1) (from UniProt Q6CUE5 1-292; Q6CRN7 1-270; Q6CVQ9 1-293; Q6CJY0 1-383) (complex)” displayed a stoichiometry N of 2. Take `CCCCNC(=O)n1c(NC(=O)OC)nc2ccccc21` [benomyl]: in assay [4] (Okp1_cmΔ and Okp1_cmΔnnΔ mutants, solid YPD agar, elevated temperature), the “benomyl sensitivity (growth)” value is “sensitive to benomyl”. In assay [4] (Okp1_cmΔ cnn1Δ mutant compared with Okp1_cmΔ or cnn1Δ, 37°C), the “growth in the presence of benomyl” value is “reduced growth”. Molecule SNEIYQQDKIDFNLPLKTDF (synthetic peptide; terminal chemistry not stated) [K332P] returned a Kd in assay [5] of 9.75 µM.

In general, stoichiometry N refers to a count of units in the complex or per binding partner. The term Kd denotes the equilibrium constant for the complex coming apart. Read a high Kd as lower affinity.
